Assay results as given in article doi:10.1101/2020.01.16.909549.

Biological target: T1, Rad4 Δβ-hairpin3 crosslinking construct (<SC41B>);Rad23 (crystal) (Saccharomyces cerevisiae?;Saccharomyces …, UniProt P14736;P32628 101-632;230-398, V131C;C132S;del599-605|)
T1 sequence 1: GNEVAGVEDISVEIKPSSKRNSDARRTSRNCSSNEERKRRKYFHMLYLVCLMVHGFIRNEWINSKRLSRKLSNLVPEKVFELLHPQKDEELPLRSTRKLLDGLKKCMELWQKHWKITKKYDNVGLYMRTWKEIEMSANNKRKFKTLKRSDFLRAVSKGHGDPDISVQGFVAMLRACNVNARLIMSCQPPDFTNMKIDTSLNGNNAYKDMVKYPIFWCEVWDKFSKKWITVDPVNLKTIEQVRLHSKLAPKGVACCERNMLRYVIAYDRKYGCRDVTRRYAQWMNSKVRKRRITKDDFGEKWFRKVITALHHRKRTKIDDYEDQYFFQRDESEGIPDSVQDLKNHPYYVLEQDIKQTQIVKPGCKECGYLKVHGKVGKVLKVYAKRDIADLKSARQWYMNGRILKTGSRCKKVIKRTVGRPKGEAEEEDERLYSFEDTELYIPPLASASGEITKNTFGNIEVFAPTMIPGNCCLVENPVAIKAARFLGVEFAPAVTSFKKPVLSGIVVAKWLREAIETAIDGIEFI
T1 sequence 2: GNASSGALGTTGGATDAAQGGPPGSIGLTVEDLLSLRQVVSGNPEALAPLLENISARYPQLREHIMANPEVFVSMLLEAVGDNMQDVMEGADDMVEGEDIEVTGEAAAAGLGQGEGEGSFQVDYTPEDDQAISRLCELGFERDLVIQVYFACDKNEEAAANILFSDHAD
Assay: X-ray crystallography

B1: CGC/GCG 23-bp crystal DNA (CH9c) (dsDNA)
DNA 1: TTGACTCGACATCGCGCGCTACA
DNA 2: ATGTAGCGCGCGATGTCGAGTCA
modifications: disulfide (cystamine)-tethered dG* at top strand position 8, from 2-F-dI
B1: binds.
